Reference: publication PMC9352680, “A comprehensive thermodynamic model for RNA binding by the Saccharomyces cerevisiae Pumilio protein PUF4”

T1: PUF4 RNA-binding domain (Saccharomyces cerevisiae, UniProt P25339 537-888)
T1 sequence: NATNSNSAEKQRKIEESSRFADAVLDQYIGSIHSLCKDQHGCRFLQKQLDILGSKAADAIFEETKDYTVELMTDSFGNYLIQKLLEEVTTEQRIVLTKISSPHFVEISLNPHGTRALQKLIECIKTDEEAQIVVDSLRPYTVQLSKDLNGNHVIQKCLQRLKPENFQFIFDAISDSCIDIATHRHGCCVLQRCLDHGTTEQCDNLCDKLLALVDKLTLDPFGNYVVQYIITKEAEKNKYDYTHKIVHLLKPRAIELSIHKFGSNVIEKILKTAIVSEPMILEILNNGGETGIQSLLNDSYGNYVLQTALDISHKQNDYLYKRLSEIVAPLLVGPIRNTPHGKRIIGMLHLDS

B1: Ia_S2_P3E.1_K3.1_C3.1_H3.1_[T1A]_A3.1_F3.1_T3.1 (ssRNA)
RNA: UUUGAUUAAUAUGAUAUCGUUCUUUCUAGUAUAUAUUCUUUCUCGAUAUCAUAUUAAUCUUU
B2: Ib_S2_P3E.1_K3.1_C3.1_H3.1_[T1A]_A3.1_F3.1_[A8G]_T3.1 (ssRNA)
RNA: UUUGAUUAAUAUGAUAUCGUUCUUUCUAGUAUAUGUUCUUUCUCGAUAUCAUAUUAAUCUUU
B3: Ib_S2_P3E.1_K3.1_C3.1_H3.1_[G2C]_A3.1_F3.1_[A8C]_T3.1 (ssRNA)
RNA: UUUGAUUAAUAUGAUAUCGUUCUUUCUUCUAUAUCUUCUUUCUCGAUAUCAUAUUAAUCUUU
B4: Ib_S2_P3E.1_K3.1_C3.1_H3.1_[G2T]_A3.1_F3.1_[A8C]_T3.1 (ssRNA)
RNA: UUUGAUUAAUAUGAUAUCGUUCUUUCUUUUAUAUCUUCUUUCUCGAUAUCAUAUUAAUCUUU
B5: Ib_S2_P3E.1_K3.1_C3.1_H3.1_[T1G]_A3.1_F3.1_[A8T]_T3.1 (ssRNA)
RNA: UUUGAUUAAUAUGAUAUCGUUCUUUCUGGUAUAUUUUCUUUCUCGAUAUCAUAUUAAUCUUU
B6: Ib_S2_P3E.1_K3.1_C3.1_H3.1_[T1C]_A3.1_F3.1_[A8G]_T3.1 (ssRNA)
RNA: UUUGAUUAAUAUGAUAUCGUUCUUUCUCGUAUAUGUUCUUUCUCGAUAUCAUAUUAAUCUUU

The binders below were run against T1, PUF4 RNA-binding domain (assay: Mg; RNA-MaP; 20 mM Na-HEPES pH 7.4, 30 mM KOAc, 0.75 mM MgCl2, 0.1% Tween-20, 5% glycerol, 0.1 mg/mL BSA, 2 mM DTT; 25 C; 0.0125-409.6 nM protein). Conditions: tags: N-His6-TEV cleaved; C-SNAP kept, Cy3B-labelled; label: tethered on chip by stalled RNA polymerase.
With UCUCUUUGUACCCUUUUAUUAUCUCUU (ssRNA) [Ie_S1_P5E.1_K5.1_C5.1_H5.1_[+4CCCTT]_A5.1_F5.1_T5.1] the Kd was 42.3 nM.
Binder UCUCUUUGCUUAUUAUUAUCUCUU (ssRNA) [Ie_S1_P5E.1_K5.1_C5.1_H5.1_[+2CT]_A5.1_F5.1_T5.1] has a Kd of 2090 nM.
UCUCUUUGUUUUAUUAUUAUCUCUU (ssRNA) [Ie_S1_P5E.1_K5.1_C5.1_H5.1_[+3TTT]_A5.1_F5.1_T5.1] gave a Kd of 28.2 nM.
UCUCUUUUCUCUGUAUUAUUAUCUCUU (ssRNA) [Ie_S1_P5E.1_K5.1_C5.1_H5.1_[+1TCTCT]_A5.1_F5.1_T5.1] showed a Kd of 7.43 nM.
For UCUCUUUGUCCCAUUAUUAUCUCUU (ssRNA) [Ie_S1_P5E.1_K5.1_C5.1_H5.1_[+3CCC]_A5.1_F5.1_T5.1], the Kd was 66.2 nM.
With UCUCUUUGUAUUCCUCAUUAUCUCUU (ssRNA) [Ie_S1_P5E.1_K5.1_C5.1_H5.1_A5.1_[+6CCTC]_F5.1_T5.1] the Kd was 120 nM.
For UCUCUUUGUACCUCUUUAUUAUCUCUU (ssRNA) [Ie_S1_P5E.1_K5.1_C5.1_H5.1_[+4CCTCT]_A5.1_F5.1_T5.1], the Kd was 35.4 nM.
Binder UCUCUUUGUACUCUUUAUUAUCUCUU (ssRNA) [Ie_S1_P5E.1_K5.1_C5.1_H5.1_[+4CTCT]_A5.1_F5.1_T5.1] has a Kd of 13.1 nM.
UCUCUUUGUACCUUUAUUAUCUCUU (ssRNA) [Ie_S1_P5E.1_K5.1_C5.1_H5.1_[+4CCT]_A5.1_F5.1_T5.1] gave a Kd of 6.7 nM.
In the case of UCUCUUUGUAUUCUCUCAUUAUCUCUU (ssRNA) [Ie_S1_P5E.1_K5.1_C5.1_H5.1_A5.1_[+6CTCTC]_F5.1_T5.1], the Kd is reported as 84.4 nM.
In the case of UCUCUUUGCUCUAUUAUUAUCUCUU (ssRNA) [Ie_S1_P5E.1_K5.1_C5.1_H5.1_[+2CTC]_A5.1_F5.1_T5.1], the Kd is reported as greater than 2300 nM.
With UCUCUUUGUUAUUAUUAUCUCUU (ssRNA) [Ie_S1_P5E.1_K5.1_C5.1_H5.1_[+2T]_A5.1_F5.1_T5.1] the Kd was 64.9 nM.
Binder UCUCUUUGUUCUCAUUAUUAUCUCUU (ssRNA) [Ie_S1_P5E.1_K5.1_C5.1_H5.1_[+3TCTC]_A5.1_F5.1_T5.1] has a Kd of 456 nM.
For UCUCUUUGUCCUCUAUUAUUAUCUCUU (ssRNA) [Ie_S1_P5E.1_K5.1_C5.1_H5.1_[+3CCTCT]_A5.1_F5.1_T5.1], the Kd was 397 nM.
UCUCUUUGUAUUCCCUAUUAUCUCUU (ssRNA) [Ie_S1_P5E.1_K5.1_C5.1_H5.1_A5.1_[+6CCCT]_F5.1_T5.1] gave a Kd of 32.4 nM.
UCUCUUUGUCUCUAUUAUUAUCUCUU (ssRNA) [Ie_S1_P5E.1_K5.1_C5.1_H5.1_[+2TCTC]_A5.1_F5.1_T5.1] was tested, and the Kd was 405 nM.
Binder UCUCUUUGUCAUUAUUAUCUCUU (ssRNA) [Ie_S1_P5E.1_K5.1_C5.1_H5.1_[+3C]_A5.1_F5.1_T5.1] has a Kd of 99.4 nM.
UCUCUUUGUCUAUUAUUAUCUCUU (ssRNA) [Ie_S1_P5E.1_K5.1_C5.1_H5.1_[+2TC]_A5.1_F5.1_T5.1] showed a Kd of 18.6 nM.
UCUCUUUCCCUUGUAUUAUUAUCUCUU (ssRNA) [Ie_S1_P5E.1_K5.1_C5.1_H5.1_[+1CCCTT]_A5.1_F5.1_T5.1] was tested, and the Kd was 5.34 nM.
Work on UCUCUUUGUAUUUUCAUUAUCUCUU (ssRNA) [Ie_S1_P5E.1_K5.1_C5.1_H5.1_A5.1_[+6TTC]_F5.1_T5.1] yielded a Kd of 40.7 nM.
With UCUCUUUGUCUCAUUAUUAUCUCUU (ssRNA) [Ie_S1_P5E.1_K5.1_C5.1_H5.1_[+3CTC]_A5.1_F5.1_T5.1] the Kd was 36.6 nM.
UCUCUUUGUUCCAUUAUUAUCUCUU (ssRNA) [Ie_S1_P5E.1_K5.1_C5.1_H5.1_[+3TCC]_A5.1_F5.1_T5.1] was tested, and the Kd was 36.5 nM.
With UCUCUUUGUAUUUUCCAUUAUCUCUU (ssRNA) [Ie_S1_P5E.1_K5.1_C5.1_H5.1_A5.1_[+6TTCC]_F5.1_T5.1] the Kd was 51.8 nM.
UCUCUUUGUCCCUUAUUAUUAUCUCUU (ssRNA) [Ie_S1_P5E.1_K5.1_C5.1_H5.1_[+3CCCTT]_A5.1_F5.1_T5.1] showed a Kd of 884 nM.
Binder UCUCUUUGUAUUCCUUUAUUAUCUCUU (ssRNA) [Ie_S1_P5E.1_K5.1_C5.1_H5.1_[+4TTCCT]_A5.1_F5.1_T5.1] has a Kd of 48.5 nM.
Binder UCUCUUUCCUCUGUAUUAUUAUCUCUU (ssRNA) [Ie_S1_P5E.1_K5.1_C5.1_H5.1_[+1CCTCT]_A5.1_F5.1_T5.1] has a Kd of 4.35 nM.
Work on UCUCUUUGUAUUUCUCUAUUAUCUCUU (ssRNA) [Ie_S1_P5E.1_K5.1_C5.1_H5.1_A5.1_[+6TCTCT]_F5.1_T5.1] yielded a Kd of 30.9 nM.
In the case of UCUCUUUGUCCCUAUUAUUAUCUCUU (ssRNA) [Ie_S1_P5E.1_K5.1_C5.1_H5.1_[+3CCCT]_A5.1_F5.1_T5.1], the Kd is reported as 1100 nM.
UCUCUUUGUUCUAUUAUUAUCUCUU (ssRNA) [Ie_S1_P5E.1_K5.1_C5.1_H5.1_[+3TCT]_A5.1_F5.1_T5.1] was tested, and the Kd was 32.9 nM.
For UCUCUUUGUAUCCUUAUUAUCUCUU (ssRNA) [Ie_S1_P5E.1_K5.1_C5.1_H5.1_[+4TCC]_A5.1_F5.1_T5.1], the Kd was 11 nM.
UCUCUUUGUAUUUCUAUUAUCUCUU (ssRNA) [Ie_S1_P5E.1_K5.1_C5.1_H5.1_A5.1_[+5TTC]_F5.1_T5.1] gave a Kd of 6.57 nM.
UCUCUUUGUACUUUUAUUAUCUCUU (ssRNA) [Ie_S1_P5E.1_K5.1_C5.1_H5.1_[+4CTT]_A5.1_F5.1_T5.1] gave a Kd of 4.31 nM.
For UCUCUUUGCUUUAUUAUUAUCUCUU (ssRNA) [Ie_S1_P5E.1_K5.1_C5.1_H5.1_[+2CTT]_A5.1_F5.1_T5.1], the Kd was 1920 nM.
Binder UCUCUUUGUUUCCUAUUAUUAUCUCUU (ssRNA) [Ie_S1_P5E.1_K5.1_C5.1_H5.1_[+3TTCCT]_A5.1_F5.1_T5.1] has a Kd of 139 nM.
Work on UCUCUUUGUAUUCCCAUUAUCUCUU (ssRNA) [Ie_S1_P5E.1_K5.1_C5.1_H5.1_A5.1_[+6CCC]_F5.1_T5.1] yielded a Kd of 350 nM.
For UCUCUUUGUAUUCUCUUAUUAUCUCUU (ssRNA) [Ie_S1_P5E.1_K5.1_C5.1_H5.1_A5.1_[+5TCTCT]_F5.1_T5.1], the Kd was 29.4 nM.
UCUCUUUGUAUUUCCUUAUUAUCUCUU (ssRNA) [Ie_S1_P5E.1_K5.1_C5.1_H5.1_A5.1_[+5TTCCT]_F5.1_T5.1] showed a Kd of 30.1 nM.
Work on UCUCUUUGUUCUCUAUUAUUAUCUCUU (ssRNA) [Ie_S1_P5E.1_K5.1_C5.1_H5.1_[+3TCTCT]_A5.1_F5.1_T5.1] yielded a Kd of 85.1 nM.
Work on UCUCUUUGCUCUUAUUAUUAUCUCUU (ssRNA) [Ie_S1_P5E.1_K5.1_C5.1_H5.1_[+2CTCT]_A5.1_F5.1_T5.1] yielded a Kd greater than 2300 nM.
UCUCUUUGUAUCUCUCUAUUAUCUCUU (ssRNA) [Ie_S1_P5E.1_K5.1_C5.1_H5.1_A5.1_[+5CTCTC]_F5.1_T5.1] gave a Kd of 36 nM.
For UCUCUUUGUAUUCUUAUUAUCUCUU (ssRNA) [Ie_S1_P5E.1_K5.1_C5.1_H5.1_A5.1_[+5TCT]_F5.1_T5.1], the Kd was 7.13 nM.
In the case of UCUCUUUGUUCAUUAUUAUCUCUU (ssRNA) [Ie_S1_P5E.1_K5.1_C5.1_H5.1_[+3TC]_A5.1_F5.1_T5.1], the Kd is reported as 10.9 nM.
For UCUCUUUGUAUCCCUUUAUUAUCUCUU (ssRNA) [Ie_S1_P5E.1_K5.1_C5.1_H5.1_A5.1_[+5CCCTT]_F5.1_T5.1], the Kd was 60.4 nM.
Work on UCUCUUUGUCUUAUUAUUAUCUCUU (ssRNA) [Ie_S1_P5E.1_K5.1_C5.1_H5.1_[+3CTT]_A5.1_F5.1_T5.1] yielded a Kd of 41.9 nM.
With UCUCUUUGUUUCAUUAUUAUCUCUU (ssRNA) [Ie_S1_P5E.1_K5.1_C5.1_H5.1_[+3TTC]_A5.1_F5.1_T5.1] the Kd was 22.2 nM.
For UCUCUUUGUCUCUUAUUAUUAUCUCUU (ssRNA) [Ie_S1_P5E.1_K5.1_C5.1_H5.1_[+2TCTCT]_A5.1_F5.1_T5.1], the Kd was 332 nM.
Work on B1 yielded a Kd of 931 nM.
B2 showed a Kd greater than 2300 nM.
Binder B3 has a Kd greater than 2300 nM.
For B4, the Kd was greater than 2300 nM.
B5 showed a Kd of 955 nM.
Work on B6 yielded a Kd greater than 2300 nM.
For UCUCUUUGUCUCUCAUUAUUAUCUCUU (ssRNA) [Ie_S1_P5E.1_K5.1_C5.1_H5.1_[+3CTCTC]_A5.1_F5.1_T5.1], the Kd was 1410 nM.
UCUCUUUGUCCUAUUAUUAUCUCUU (ssRNA) [Ie_S1_P5E.1_K5.1_C5.1_H5.1_[+3CCT]_A5.1_F5.1_T5.1] showed a Kd of 110 nM.
UCUCUUUGUAUUUUUAUUAUCUCUU (ssRNA) [Ie_S1_P5E.1_K5.1_C5.1_H5.1_A5.1_[+6TTT]_F5.1_T5.1] was tested, and the Kd was 4.32 nM.
Work on UCUCUUUGUAUCCUCUUAUUAUCUCUU (ssRNA) [Ie_S1_P5E.1_K5.1_C5.1_H5.1_A5.1_[+5CCTCT]_F5.1_T5.1] yielded a Kd of 30.3 nM.
UCUCUUUGUUUCCAUUAUUAUCUCUU (ssRNA) [Ie_S1_P5E.1_K5.1_C5.1_H5.1_[+3TTCC]_A5.1_F5.1_T5.1] was tested, and the Kd was 126 nM.
UCUCUUUGUCCUCAUUAUUAUCUCUU (ssRNA) [Ie_S1_P5E.1_K5.1_C5.1_H5.1_[+3CCTC]_A5.1_F5.1_T5.1] showed a Kd of 738 nM.
Binder UCUCUUUGUUUAUUAUUAUCUCUU (ssRNA) [Ie_S1_P5E.1_K5.1_C5.1_H5.1_[+2TT]_A5.1_F5.1_T5.1] has a Kd of 8.58 nM.
